We go through four molecules from patent US20250136687A1 (SHANDONG SIMCERE BIOPHARMACEUTICAL, published 2025).

In assay [1] the target is T1, recombinant human CD3ε-ECD His protein (human, UniProt P07766 23-126).
T1 construct: extracellular domain; also called human CD3ε-His; CD3ε antigen protein; not shown: His tag
Put plainly: SPR (Biacore), antibody captured on Protein A chip. Here is the method:
Sample buffer and running buffer were HBS-EP+(10 mM HEPES, 150 mM NaCl, 3 mM EDTA, 0.05% surfactant P20) (GE Healthcare; BR-1006-69). The flow-through cell was set to 25° C. The sample block was set to 16° C. Both were pretreated with the running buffer. In each cycle, the antibody to be detected was first captured with a Protein A chip, and then a single concentration of CD3ε antigen protein (purchased from Sino Biological, Inc. (China), catalog number: 10977-H08H) was injected. The binding and dissociation processes of the antibody and the antigen protein were recorded, and finally a glycine solution (pH 1.5, GE Healthcare; BR-1003-54) was used to complete chip regeneration. The binding was measured by injecting different concentrations of recombinant human CD3ε-ECD His proteins in a solution for 240 s with a flow rate of 30 μL/min. The concentration started from 200 nM (see the detailed results for the actual concentration in the test) and was diluted at 1:1, making a total of 5 concentrations. The dissociation phase was monitored for up to 600 s and was triggered by switching from sample solution to running buffer. The surface was regenerated by washing with a 10 mM glycine solution (pH 1.5) for 30 s at a flow rate of 30 μL/min. Bulk refractive index difference was corrected by subtracting the response obtained from the goat anti-human Fc surface. Blank injection was also subtracted (=double reference). For calculation of apparent KD and other kinetic parameters, Langmuir 1:1 model was used.

For assay [2], the target named is T2, human CD3 on the cell surface (Jurkat cells, expanded human T cells, Jurkat-Lucia NFAT cells, human PBMC) (human, UniProt P07766 23-207; P04234 22-171; P09693 23-182). Put plainly: cell-based or functional assay.
T2 sequence (P07766 23-207, chain 1 of 3): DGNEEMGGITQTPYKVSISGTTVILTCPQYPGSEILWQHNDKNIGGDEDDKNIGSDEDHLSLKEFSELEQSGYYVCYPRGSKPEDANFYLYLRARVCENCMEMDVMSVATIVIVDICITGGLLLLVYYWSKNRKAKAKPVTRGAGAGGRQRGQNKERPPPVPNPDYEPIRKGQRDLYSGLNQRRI
T2 sequence (P04234 22-171, chain 2 of 3): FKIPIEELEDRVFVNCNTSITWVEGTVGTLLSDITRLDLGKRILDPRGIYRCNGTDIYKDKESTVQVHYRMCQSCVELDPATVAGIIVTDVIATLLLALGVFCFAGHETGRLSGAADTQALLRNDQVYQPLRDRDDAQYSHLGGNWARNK
T2 sequence (P09693 23-182, chain 3 of 3): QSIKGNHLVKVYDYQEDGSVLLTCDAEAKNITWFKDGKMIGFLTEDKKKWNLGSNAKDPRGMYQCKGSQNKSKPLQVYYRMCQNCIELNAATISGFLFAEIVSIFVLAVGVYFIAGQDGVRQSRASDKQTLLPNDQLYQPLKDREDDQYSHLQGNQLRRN
Assay [3] concerns the target T3, cynomolgus monkey CD3 on the surface of expanded monkey T cells (cynomolgus monkey, UniProt Q95LI5 22-198; Q95LI8 22-171; Q95LI7 23-181).
T3 construct: whole, on cells; Endogenous CD3 within the TCR-CD3 complex on T cells expanded from cynomolgus monkey PBMC
Put plainly: FACS, expanded monkey T cells. As for the experimental part: (§1) The binding of the chimeric antibodies to CD3 on the cell surface was analyzed by detecting the binding of the antibodies to Jurkat cells and human T cells. Suspension cells Jurkat cells were scale-up cultured in T-75 cell culture flasks to the logarithmic growth phase, the supernatant of the medium was discarded by centrifugation, and the cell pellet was washed 2 times with PBS for later use. The expanded human T cells were washed 2 times with PBS for later use. After counting the cells in the previous step, the cell pellet was resuspended with [PBS+2% (w/w) BSA] blocking solution to 4×10⁶ cells/ml, and added to a 96-well FACS reaction plate at 50 μl/well, and then the chimeric antibody to be tested was added at 50 μl/well, and incubated at 4° C. for 1 h. The cells were centrifuged and washed 3 times with a PBS buffer. […] The cells were centrifuged and washed 5 times with PBS, and FACS (FACS Canto™, purchased from BD Company) was used for detection and result analysis. Data analysis was performed by software (CellQuest) to obtain the mean fluorescence […] (MFI) of the cells. And then software (GraphPad Prism8) was used for analysis, data fitting, and EC50 value calculation. The same method was used to simultaneously detect the binding of the chimeric antibodies to endogenous CD3 negative cells MOLT4 cells.
FACS detection and data analysis were performed on the cryopreserved monkey T cells of Example 2.4 according to the method in Example 5.1.

The target in assay [4] is T2, human CD3 on the cell surface (Jurkat …). Put plainly: FACS, Jurkat cells. Here is the method: as §1
For assay [5] the target is unchanged. The assay can be described thus: FACS, expanded human T cells. Here is the method: as §1
The target in assay [6] is T1, recombinant human CD3ε-ECD His protein. The assay can be described thus: ELISA, coated antigen. As for the experimental part:
(§2) To detect the binding activity of the humanized antibodies to CD3 protein, CD3 protein was diluted with PBS to the final concentration of […], then added to a 96-well ELISA plate at 50 μL/well, and the plate was sealed with a plastic film, and incubated overnight at 4° C. On the next day, the plate was washed 2 times with PBS, and a blocking solution [PBS+2% (v/v) BSA] was added for blocking at room temperature for 2 h. The blocking solution was poured off, and the antibody (initial concentration of 100 nM, and gradient dilution at 1:10) or a negative control antibody was added at 50 µl/well. After incubation at 37° C. for 2 h, the plate was washed 3 times with PBS. […] TMB substrate was added at 50 μl/well, and incubated at room temperature for 10 min, and then a stop solution (1.0 N HCl) was added at 50 μl/well. The OD450 nm values were read by an ELISA microplate reader (Multimode Plate Reader, EnSight, purchased from Perkin Elmer).

Assay [7] has as its target T4, human CD3ε/δ-His (human, UniProt P07766 23-126; P04234 22-105).
T4 construct: Bought recombinant heterodimer with His tag; also called human CD3ε/δ protein
The assay can be described thus: ELISA, coated antigen. As for the experimental part: as §2

Assay [8] has as its target T1, recombinant human CD3ε-ECD His protein. Put plainly: SPR, antibody captured on Protein A chip. Here is the method: (§3) Running buffer was HBS-EP+(10 mM HEPES, 150 mM NaCl, 3 mM EDTA, 0.05% surfactant P20) (GE Healthcare; BR-1006-69). The flow-through cell was set to 25° C. The sample block was set to 16° C. Both were pretreated with the running buffer. In each cycle, an antibody to be detected was first captured with a Protein A chip, and then a single concentration of CD3ε antigen protein was injected. The binding and dissociation processes of the antibody and the antigen protein were recorded, and finally Glycine pH 1.5 (GE Healthcare; BR-1003-54) was used to complete chip regeneration. The binding was measured by injecting different concentrations of recombinant human CD3ε proteins in a solution for 240 s with a flow rate of 30 μL/min. The concentration started from 200 nM (see the detailed results for the actual concentration in the test) and was diluted at 1:1, making a total of 5 concentrations. The dissociation phase was monitored for up to 600 s and was triggered by switching from sample solution to running buffer. The surface was regenerated by washing with a 10 mM glycine solution (pH 1.5) for 30 s at a flow rate of 30 μL/min. Bulk refractive index difference was corrected by subtracting the response obtained from the goat anti-human Fc surface, and the blank injection was subtracted at the same time (=double reference). For calculation of apparent KD value and other kinetic parameters, Langmuir 1:1 model was used.

Assay [9] has as its target T4, human CD3ε/δ-His. Put plainly: SPR, antibody captured on Protein A chip. As for the experimental part: as §3
In the next assay the target is T5, monkey CD3ε protein (monkey, UniProt Q95LI5 22-117, limits assumed).
T5 sequence (looked up): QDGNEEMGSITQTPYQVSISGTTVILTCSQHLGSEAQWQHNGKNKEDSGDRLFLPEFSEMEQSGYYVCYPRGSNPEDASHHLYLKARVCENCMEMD
Put plainly: ELISA, coated antigen. Here is the method: as §2
(§4) To detect the binding activity of the humanized antibodies to monkey CD3 protein, CD3 protein was diluted with PBS to the final concentration of […], and then added to a 96-well ELISA plate at 50 μl/well.

The target of another assay is T6, monkey CD3ε/δ-His (monkey, UniProt Q95LI5 22-117; Q95LI8 22-105).
T6 construct: Bought recombinant heterodimer with His tag
T6 sequence (Q95LI8 22-105, stated change not applied, form in doubt, chain 2 of 2, one chain of several): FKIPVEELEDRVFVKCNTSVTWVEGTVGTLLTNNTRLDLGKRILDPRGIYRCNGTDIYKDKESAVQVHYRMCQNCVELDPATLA
The assay can be described thus: ELISA, coated antigen. Here is the method: as §2, §4

Assay [10] deals with T2, human CD3 on the cell surface (Jurkat …). The assay can be described thus: FACS, expanded human T cells. Here is the method:
as §1
The expanded human PBMC cells were collected, and FACS detection and data analysis were performed according to the method in Example 5.1.
The source holds these as a separate data set.

The target in assay [11] is T3, cynomolgus monkey CD3 on the surface of …. Put plainly: FACS, expanded monkey T cells. Here is the method: as §1
The expanded monkey T cells were collected, and FACS detection and data analysis were performed according to the method in Example 5.1.
The source holds these as a separate data set.

Numbering of substitutions follows the chain as printed. Read-outs that look alike come from different tables or passages of the source.

T1 sequence (P07766 23-126): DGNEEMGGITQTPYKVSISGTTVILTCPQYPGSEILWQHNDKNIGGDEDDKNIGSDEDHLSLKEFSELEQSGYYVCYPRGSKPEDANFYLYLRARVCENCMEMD
T4 sequence (P07766 23-126, stated change not applied, form in doubt, chain 1 of 2): as the sequence (P07766 23-126) above
T4 sequence (P04234 22-105, stated change not applied, form in doubt, chain 2 of 2): as the sequence (Q95LI8 22-105, stated change not applied, form in doubt, chain 2 of 2, one chain of several) above, with V5I, K15N, V20I, T32S, N33D, N34I, A64T, N74S, L83V counted along it
T3 sequence (Q95LI5 22-198, chain 1 of 3): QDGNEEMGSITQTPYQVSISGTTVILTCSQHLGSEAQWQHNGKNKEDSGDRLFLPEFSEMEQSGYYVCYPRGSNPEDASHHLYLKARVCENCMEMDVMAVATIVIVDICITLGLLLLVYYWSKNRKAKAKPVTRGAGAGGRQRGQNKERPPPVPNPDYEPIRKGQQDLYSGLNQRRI
T3 sequence (Q95LI8 22-171, chain 2 of 3): as the sequence (P04234 22-171, chain 2 of 3) above, with I5V, N15K, I20V, S32T, D33N, I34N, T64A, S74N, V83L, H141R counted along it
T3 sequence (Q95LI7 23-181, chain 3 of 3): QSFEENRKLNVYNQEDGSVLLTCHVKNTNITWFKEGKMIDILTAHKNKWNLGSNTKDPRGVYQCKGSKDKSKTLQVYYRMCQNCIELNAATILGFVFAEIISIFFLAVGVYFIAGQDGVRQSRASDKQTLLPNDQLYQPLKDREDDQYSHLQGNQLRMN

B1: 5-7.13 human-murine chimeric antibody (antibody, human IgG1, kappa, V domains shown)
VH: QVQLQQPGTELVKPGASVKLSCKASGYTFTSYWVHWVKQRPGQGLEWIGNINPSDGVTNYNEKFKSRATLTVDKSSSTAYMQLSSLTSEDSAVYYCTRDAYGQYYFDDWGQGTTLTVSS
VL: DIVMSQSPSSLVVSAGEKVTMSCKSSQSLLNSRTRKNYLAWYQQKPGQSPKLLIYWASVRDSGVPDRFTGSGSGTDFTLTISNVQAEDLAVYYCIQSYYLRTFGGGTILEIKR
notes: Human IgG1 chimera
For B1, in [1], the dissociation constant Kd is 0.345 nM, the koff was determined as 0.00027 s⁻¹ and the kon was found to be 785000 M⁻¹ s⁻¹. Further, in assay [2], the “EC50 (nM), luciferase reporter, Jurkat-Lucia NFAT cells” value (from here on “EC50 (nM), luciferase reporter”) came out at 0.7 nM and the “Maximum response value (RLU)” value amounted to 55400 RLU. In assay [3], the midpoint of the response, the EC50, lay at 0.09 nM and the MFI_Max was 26500 MFI. Moreover, in assay [4], the EC50 turned out to be 0.06 nM and the MFI_Max stood at 32200 MFI. Further, in [5], it took 0.1 nM to reach a half-maximal effect (EC50) and the MFI_Max amounted to 15900 MFI.

B2: 5-40.21 human-murine chimeric antibody (antibody, human IgG1, kappa, V domains shown)
VH: QVQLQQPGSELVRPGASVKLSCKASGYTFTSYWMHWVKQRPGQGLEWIGNTYPGSGSTNYDEKFKSKATLTVDSSSSTAYMQLSSLTSEDSAVYYCTRDRYGVYYFDYWGQGTTLTVSS
VL: B1 VL with V12A, V59T, D61E, T69S, N83S, I95T, Y99N, I108K
notes: Human IgG1 chimera
For B2, in assay [1], the Kd amounted to 0.553 nM, the koff came out at 0.000379 s⁻¹ and the on-rate constant (kon) is 686000 M⁻¹ s⁻¹. Moreover, in assay [2], the “EC50 (nM), luciferase reporter” value is 4.79 nM and the “Maximum response value (RLU)” value was found to be 46200 RLU. Moreover, in assay [3], the EC50 was determined as 1.09 nM and the MFI_Max was determined as 24400 MFI. Moreover, in [4], the midpoint of the response, the EC50, lay at 0.44 nM and the MFI_Max was determined as 26700 MFI. In [5], this molecule returned an EC50 of 0.99 nM and an MFI_Max of 11400 MFI.

B3: 6-44.5 human-murine chimeric antibody (antibody, human IgG1, kappa, V domains shown)
VH: EVQLQQSGPELVKPGASVKMSCKASGHTFTSHIMHWVKQKPGQGLEWIGYINPNNDRTEYSEKFKGKATLTSDKSSSTAYMELSSLTSEDSAVYYCAGEAYYSNSLYAMDYWGQGTSVTVSS
VL: B1 VL with V12A, L30F, K51E, V59T, D61E, D66V, N83S, I95K, I108K, I111V
notes: Human IgG1 chimera
With B3, in assay [1], the Kd was 0.445 nM, the dissociation rate constant (koff) came out at 0.000259 s⁻¹ and the kon was 581000 M⁻¹ s⁻¹. Further, in assay [2], the “EC50 (nM), luciferase reporter” value amounted to 1.84 nM and the “Maximum response value (RLU)” value worked out at 33600 RLU. In assay [3], this molecule gave an EC50 of 0.42 nM and an MFI_Max of 27100 MFI. In [4], this molecule came in with an EC50 of 0.15 nM and an MFI_Max of 31700 MFI. In addition, in assay [5], the EC50 came out at 0.62 nM and the MFI_Max stood at 13300 MFI.

B4: 5-40.21-H3-L1 humanized antibody (antibody, human IgG1, kappa, V domains shown)
VH: EVQLVQSGAEVKKPGASVKVSCKASGYTFTSYWMHWVRQAPGQGLEWMGNTYPGSGSTNYDEKFKSRVTITVDSSASTAYMELSSLRSEDTAVYYCTRDRYGVYYFDYWGQGTTVTVSS
VL: DIVMTQSPDSLAVSLGERATINCKSSQSLLNSRTRKNYLAWYQQKPGQSPKLLIYWASTRESGVPDRFSGSGSGTDFTLTISSLQAEDVAVYYCTQSYNLRTFGGGTKVEIKR
With B4, the EC50 is 0.13 nM in assay [6]; 0.28 nM in the assay with human CD3ε/δ-His [7]; 0.000467 nM with monkey CD3ε protein; 0.00456 nM with monkey CD3ε/δ-His; 1.65 nM in assay [10]; 0.73 nM in [11]. Also, the max-OD450 in assay [6] stood at 1.53 OD450; with human CD3ε/δ-His [7], 3.15 OD450; with monkey CD3ε protein it was 2.84 OD450; with monkey CD3ε/δ-His it was 3.16 OD450. Further, the Kd amounted to 1.87 nM in assay [8] and 115 nM with human CD3ε/δ-His [9]. Also, the koff amounted to 0.000485 s⁻¹ in assay [8] and 0.0184 s⁻¹ with human CD3ε/δ-His [9]. Moreover, the kon in assay [8] turned out to be 260000 M⁻¹ s⁻¹; in the assay with human CD3ε/δ-His [9], 161000 M⁻¹ s⁻¹. The max_MFI was found to be 18000 MFI in [10] and 17800 MFI in assay [11].
